Measured values reported in the supplement of paper PMC11246515.
± gives the standard deviation of the averaged measurements.

Assay: total protein half-life in vivo (active degradation + dilution); higher = more stable protein
[1] = E. coli NCM3722 delta-clpP delta-lon delta-hslV, growth: N-lim chemostat, doubling time 6 h
[2] = E. coli NCM3722 delta-clpP, growth: N-lim chemostat, doubling time 6 h
[3] = E. coli NCM3722 delta-hslV, growth: N-lim chemostat, doubling time 6 h
[4] = E. coli NCM3722 delta-lon, growth: N-lim chemostat, doubling time 6 h
[5] = E. coli NCM3722 delta-smpB, growth: N-lim chemostat, doubling time 6 h
[6] = wild type E. coli NCM3722, growth: C-lim chemostat, doubling time 3 h
[7] = wild type E. coli NCM3722, growth: C-lim chemostat, doubling time 6 h
[8] = wild type E. coli NCM3722, growth: C-lim chemostat, doubling time 12 h
[9] = wild type E. coli NCM3722, growth: N-lim chemostat, doubling time 6 h
[10] = wild type E. coli NCM3722, growth: N-lim chemostat, doubling time 12 h
[11] = wild type E. coli NCM3722, growth: P-lim chemostat, doubling time 6 h
[12] = wild type E. coli NCM3722, growth: P-lim chemostat, doubling time 12 h

| Sequence | total protein half-life in vivo [1] | total protein half-life in vivo [2] | total protein half-life in vivo [3] | total protein half-life in vivo [4] | total protein half-life in vivo [5] | total protein half-life in vivo [6] | total protein half-life in vivo [7] | total protein half-life in vivo [8] | total protein half-life in vivo [9] | total protein half-life in vivo [10] | total protein half-life in vivo [11] | total protein half-life in vivo [12] |
| --- | --- | --- | --- | --- | --- | --- | --- | --- | --- | --- | --- | --- |
| MTLRKILALTCLLLPMMASAHQFETGQRVPPIGITDRGELVLDKDQFSYKTWNSAQLVGKVRVLQHIAGRTSAKEKNATLIEAIKSAKLPHDRYQTTTIVNTDDAIPGSGMFVRSSLESNKKLYPWSQFIVDSNGVALGAWQLDEESSAVVVLDKDGRVQWAKDGALTPEEVQQVMDLLQKLLK | 3.41 ± 0.29 h | 4.29 ± 0.11 h | 5.19 h | 5.62 ± 0.11 h | 5.29 ± 0.49 h | 2.78 ± 0.033 h | 4.952 ± 0.046 h | 7.33 ± 1.6 h | 5.43 ± 0.29 h | 7.61 ± 2.1 h | 4.74 ± 1.5 h | 8.359 ± 0.082 h |
| MTTIVSVRRNGHVVIAGDGQATLGNTVMKGNVKKVRRLYNDKVIAGFAGGTADAFTLFELFERKLEMHQGHLVKAAVELAKDWRTDRMLRKLEALLAVADETASLIITGNGDVVQPENDLIAIGSGGPYAQAAARALLENTELSAREIAEKALDIAGDICIYTNHFHTIEELSYKA [P0A7B8] |  | 5.42 ± 0.062 h |  | 6.49 ± 0.19 h | 5.3 ± 0.5 h | 2.72 ± 0.33 h | 6.23 ± 0.091 h | 10.2 ± 1.4 h | 5.716 ± 0.023 h | 9.85 ± 1 h | 5.74 ± 0.23 h |  |
| MRKIALILAMLLIPCVSFAGLLGSSSSTTPVSKEYKQQLMGSPVYIQIFKEERTLDLYVKMGEQYQLLDSYKICKYSGGLGPKQRQGDFKSPEGFYSVQRNQLKPDSRYYKAINIGFPNAYDRAHGYEGKYLMIHGDCVSIGCYAMTNQGIDEIFQFVTGALVFGQPSVQVSIYPFRMTDANMKRHKYSNFKDFWEQLKPGYDYFEQTRKPPTVSVVNGRYVVSKPLSHEVVQPQLASNYTLPEAK [P0AA99] | 0.797 h | 0.657 ± 0.077 h | 0.844 h | 0.64 h | 0.689 ± 0.063 h | 0.313 ± 0.18 h | 1.37 h | 1.81 h | 0.909 ± 0.048 h | 1.54 ± 0.73 h | 0.858 ± 0.34 h | 1.45 ± 0.56 h |
| MSLINTKIKPFKNQAFKNGEFIEITEKDTEGRWSVFFFYPADFTFVCPTELGDVADHYEELQKLGVDVYAVSTDTHFTHKAWHSSSETIAKIKYAMIGDPTGALTRNFDNMREDEGLADRATFVVDPQGIIQAIEVTAEGIGRDASDLLRKIKAAQYVASHPGEVCPAKWKEGEATLAPSLDLVGKI [P0AE08] | 2.82 ± 0.23 h | 2.22 ± 0.28 h | 1.91 ± 0.12 h | 2.26 ± 0.079 h | 2.119 ± 0.01 h | 2.89 ± 0.21 h | 5.05 ± 0.11 h | 7.67 ± 0.6 h | 2.03 ± 0.16 h | 2.6085 ± 0.0015 h | 5.49 ± 0.38 h | 9.52 ± 0.29 h |
| MLSNDILRSVRYILKANNNDLVRILALGNVEATAEQIAVWLRKEDEEGFQRCPDIVLSSFLNGLIYEKRGKDESAPALEPERRINNNIVLKKLRIAFSLKTDDILAILTEQQFRVSMPEITAMMRAPDHKNFRECGDQFLRYFLRGLAARQHVKKG | 5.25 ± 0.12 h |  |  | 6.64 ± 0.089 h | 5.21 ± 0.48 h | 3.21 ± 0.69 h | 6.3 ± 0.61 h | 11.7 ± 1 h | 5.08 ± 0.49 h | 8.7 ± 0.92 h | 4.99 ± 0.15 h |  |
| MYERYAGLIFDMDGTILDTEPTHRKAWREVLGHYGLQYDIQAMIALNGSPTWRIAQAIIELNQADLDPHALAREKTEAVRSMLLDSVEPLPLVDVVKSWHGRRPMAVGTGSESAIAEALLAHLGLRHYFDAVVAADHVKHHKPAPDTFLLCAQRMGVQPTQCVVFEDADFGIQAARAAGMDAVDVRLL | 5.33 ± 0.13 h |  |  | 4.41 h | 1.29 h | 2.62 ± 0.62 h | 4.33 ± 0.098 h | 6.18 h |  |  | 2.46 ± 0.33 h | 7.98 ± 0.48 h |
| MPSFDIVSEVDLQEARNAVDNASREVESRFDFRNVEASFELNDASKTIKVLSESDFQVNQLLDILRAKLLKRGIEGSSLDVPENIVHSGKTWFVEAKLKQGIESATQKKIVKMIKDSKLKVQAQIQGDEIRVTGKSRDDLQAVMAMVRGGDLGQPFQFKNFRD [P0A8E7] | 6.17 ± 0.16 h | 6.38 ± 1 h | 5.06 ± 0.27 h | 6.83 ± 0.4 h | 5.85 ± 0.38 h | 3.18 ± 0.28 h | 6.22 ± 1.1 h | 10.7 ± 0.25 h | 4.32 ± 0.57 h | 8.82 ± 1 h | 5.06 ± 1.4 h | 12.7 ± 1.6 h |
